Results reported in patent publication CN113880955A (dated 2022).
Residue numbers refer to the chain shown, from its start. Names may count otherwise. Each block holds one binder with its values, some of them ahead of it.

How the values were obtained:
人CD70 [1] = molecular target: T1, 人CD70 (human, UniProt P32970 1-193); test: flow cytometry on CD47+CD70+ Raji cells
T1 construct: whole, on cells; also called 人类CD70; CD27L
T1 sequence (looked up): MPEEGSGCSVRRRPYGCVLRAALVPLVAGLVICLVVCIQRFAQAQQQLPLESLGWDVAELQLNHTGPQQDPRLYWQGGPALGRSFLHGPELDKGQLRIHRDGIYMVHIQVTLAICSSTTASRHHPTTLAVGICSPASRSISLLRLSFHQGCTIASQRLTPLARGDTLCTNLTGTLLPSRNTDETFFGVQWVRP

人CD70 [2] = molecular target: T1, 人CD70; test: flow cytometry on CD47+CD70+ U266 cells (double positive: binding through CD70 and/or CD47)
人CD47 = molecular target: T2, 人CD47 (human, UniProt Q08722 19-323); test: as above
T2 construct: whole, on cells

人CD70 [3] = molecular target: T1, 人CD70; test: flow cytometry on CHO cells expressing human CD70

T2 sequence (Q08722 19-323): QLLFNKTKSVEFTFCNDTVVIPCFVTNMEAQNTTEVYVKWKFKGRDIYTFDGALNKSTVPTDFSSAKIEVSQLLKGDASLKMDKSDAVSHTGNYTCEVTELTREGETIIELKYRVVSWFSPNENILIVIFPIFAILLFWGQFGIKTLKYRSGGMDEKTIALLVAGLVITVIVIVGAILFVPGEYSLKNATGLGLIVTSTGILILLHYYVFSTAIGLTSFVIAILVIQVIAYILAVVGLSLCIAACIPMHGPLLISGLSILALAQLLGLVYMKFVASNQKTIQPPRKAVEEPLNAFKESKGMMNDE

B1: Cusatuzumab (antibody, human IgG1, lambda, V domains shown)
VH: EVQLVESGGGLVQPGGSLRLSCAASGFTFSVYYMNWVRQAPGKGLEWVSDINNEGGTTYYADSVKGRFTISRDNSKNSLYLQMNSLRAEDTAVYYCARDAGYSNHVPIFDSWGQGTLVTVSS
VL: QAVVTQEPSLTVSPGGTVTLTCGLKSGSVTSDNFPTWYQQTPGQAPRLLIYNTNTRHSGVPDRFSGSILGNKAALTITGAQADDEAEYFCALFISNPSVEFGGGTQLTVLG
notes: IgG antibody against CD70, used as control
- binding result (人CD70 [1]): binds

B2: IMM4002 (bispecific antibody, human IgG1, kappa)
heavy: not shown
light: DIVLTQSPASLAVSPGQRATITCRASKSVSASGYSFLHWYQQKPGQPPKLLIYLASNLESGVPARFSGSGSGTDFTLTINPVEANDTANYYCQHSRELPPTFGGGTKVEIKRTVAAPSVFIFPPSDEQLKSGTASVVCLLNNFYPREAKVQWKVDNALQSGNSQESVTEQDSKDSTYSLSSTLTLSKADYEKHKVYACEVTHQGLSSPVTKSFNRGEC
notes: Made in CHO-S cells; also called 重组融合蛋白IMM4002
- binding result (人CD70 [2]): binds

B3: IMM4002M (bispecific antibody, human IgG1, kappa)
heavy: not shown
light: B2 light with N85E
notes: As IMM4002, but the light chain variable region carries N85E, which removes the glycosylation site (antibody part = IMM40M); also called 重组融合蛋白IMM4002M
- binding result (人CD70 [2]): binds
- binding result (人CD47): binds

Now from value to binder:

- binding result (人CD70 [3]): binds
B4: IMM40H (antibody, human IgG1, kappa, V domains shown)
VH: QVQLVQSGAEVKKPGASVKVSCKVSGYTFTDSALHWVRQAPGKGLEWMGVISTYDGDTDYNQKFKGRVTMTEDTSTDTAYMELSSLRSEDTAVYYCARRGYYDYDWFPYWGQGTLVTVSA
VL: DIVLTQSPASLAVSPGQRATITCRASKSVSASGYSFLHWYQQKPGQPPKLLIYLASNLESGVPARFSGSGSGTDFTLTINPVEANDTANYYCQHSRELPPTFGGGTKVEIKR
notes: IgG antibody against CD70; also called CD70抗体IMM40H; CD70单特异性抗体IMM40H

- binding result (人CD70 [3]): binds
B5: IMM4003 (bispecific antibody, human IgG1, kappa)
heavy: QVQLVQSGAEVKKPGASVKVSCKVSGYTFTDSALHWVRQAPGKGLEWMGVISTYDGDTDYNQKFKGRVTMTEDTSTDTAYMELSSLRSEDTAVYYCARRGYYDYDWFPYWGQGTLVTVSAASTKGPSVFPLAPSSKSTSGGTAALGCLVKDYFPEPVTVSWNSGALTSGVHTFPAVLQSSGLYSLSSVVTVPSSSLGTQTYICNVNHKPSNTKVDKRVEPKSCDKTHTCPPCPAPELLGGPSVFLFPPKPKDTLMISRTPEVTCVVVDVSHEDPEVKFNWYVDGVEVHNAKTKPREEQYNATYRVVSVLTVLHQDWLNGKEYKCKVSNKALPAPIAATISKAKGQPREPQVYTLPPSREEMTKNQVSLTCLVKGFYPSDIAVEWESNGQPENNYKTTPPVLDSDGSFFLYSKLTVDKSRWQQGNVFSCSVMHEALHNHYTQKSLSLSPGK
light: not shown
notes: also called 重组融合蛋白IMM4003
